One may read the stoichiometry N as the number of molecules, sites or subunits per partner or assembly.

Test [1] addresses BTV1 VP5 H385A mutant, S-tagged recombinant protein (Bluetongue virus serotype 1 (BTV1)). The test is described as follows: SDS-PAGE without reduction and heating, Western blot.
The target of test [2] is BTV1 VP5, wild-type, S-tagged recombinant protein (Bluetongue virus serotype 1 (BTV1)). Described as above.
In test [3] the target is BTV1 VP5 anchoring domain (ANC) polypeptide, His-tagged (Bluetongue virus serotype 1 (BTV1)). The test is described as follows: SDS-PAGE without reduction and heating, Coomassie staining.
Test [4] has as its target BTV1 VP5 H384-6A triple mutant, S-tagged recombinant protein (Bluetongue virus serotype 1 (BTV1)). The test is described as follows: SDS-PAGE without reduction and heating, Western blot. Background: A western blot detects proteins with antibodies after separation by electrophoresis.

In the case of “BTV1 VP5 H385A mutant, S-tagged recombinant protein (natural protein)”, in test [1], the percent trimer turned out to be 25% and the stoichiometry N was 3.
Take “BTV1 VP5, wild-type, S-tagged recombinant protein (natural protein)”: in test [2], the percent trimer was determined as 25% and the stoichiometry N amounted to 3.
In test [3], “BTV1 VP5 anchoring domain (ANC) polypeptide, His-tagged (domain or fragment)” had a percent trimer of 30% and a stoichiometry N of 3.
“BTV1 VP5 H384-6A triple mutant, S-tagged recombinant protein (natural protein)”: in test [4], the percent trimer is 25% and the stoichiometry N worked out at 3.

The values are drawn from paper PMC6363992.
